# Measured values from doi:10.1101/2024.05.10.593590.
# T1: U(702-745) (human, UniProt Q00839 702-745)
# T1 chain: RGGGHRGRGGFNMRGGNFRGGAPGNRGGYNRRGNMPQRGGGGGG
# T2: RGG1 (minimal first RGG/RG motif) (human, UniProt Q00839 702-745)
# T2 chain: T1 chain
# B1: MTRNR2L6 (structured_RNA)
# RNA: GCUAUACAUAUAUUGACCCAAUAAUUUGAUCAACGGAACAAGUUACCCUAGGGAUAACAGCGCAAUCCUAUUCUAGAGUCCAUAUUGACAAUAGGGUUUACGACCUCGAUGUUGGAUCAGGACAUCCUAAUGGUGUAGC
# B2: Syncrip (structured_RNA)
# RNA: GAGGGAGGGGAGGGAAGGGAAGGGAAGGGAAGGGGGGGUCACGCGGGGGCGCGCGCGCGCACCGGGAGCGCGCUCGGAGGCGAGUGGAACUGGAUCGGGUUUGCUGCCAGCGGCGUGAGCUUC
# B3: Antisense Syncrip (structured_RNA)
# RNA: GAAGCUCACGCCGCUGGCAGCAAACCCGAUCCAGUUCCACUCGCCUCCGAGCGCGCUCCCGGUGCGCGCGCGCGCCCCCGCGUGACCCCCCCUUCCCUUCCCUUCCCUUCCCUCCCCUCCCUC
# B4: Antisense MTRNR2L6 (structured_RNA)
# RNA: GGCUACACCAUUAGGAUGUCCUGAUCCAACAUCGAGGUCGUAAACCCUAUUGUCAAUAUGGACUCUAGAAUAGGAUUGCGCUGUUAUCCCUAGGGUAACUUGUUCCGUUGAUCAAAUUAUUGGGUCAAUAUAUGUAUAG
# B5: Syncrip G-quad (structured_RNA)
# RNA: GAGGGAGGGGAGGGAAGGGAAGGGAAGGGAAGGGGGGGAAACUUC
# B6: MTRNR2L6 antisense 200 nt (ssRNA)
# RNA: GAAUCAUUGAACAAAUGAACCCUUGAUAGCAGCUACACCAUUAGGAUGUCCUGAUCCAACAUCGAGGUCGUAAACCCUAUUGUCAAUAUGGACUCUAGAAUAGGAUUGCGCUGUUAUCCCUAGGGUAACUUGUUCCGUUGAUCAAAUUAUUGGGUCAAUAUAUGUAUAGUAAUUCGCUUAAACUUGUUUAGUCUUAGCAC
# B7: MTRNR2L6 sense 300 nt (ssRNA)
# RNA: GUGCUAAGACUAAACAAGUUUAAGCGAAUUACUAUACAUAUAUUGACCCAAUAAUUUGAUCAACGGAACAAGUUACCCUAGGGAUAACAGCGCAAUCCUAUUCUAGAGUCCAUAUUGACAAUAGGGUUUACGACCUCGAUGUUGGAUCAGGACAUCCUAAUGGUGUAGCUGCUAUCAAGGGUUCAUUUGUUCAAUGAUUAAAGUCCUACGUGGUCUGAGUUCAGACCGGAGCAAGCCAGGUCUGGUACAUGUGUAUUUAAGUCCUCCACACCUCCCAUCUAUAAGUCUUUUUAAAACAAA
# B8: MTRNR2L6 antisense 75 nt (ssRNA)
# RNA: GAACUUGUUCCGUUGAUCAAAUUAUUGGGUCAAUAUAUGUAUAGUAAUUCGCUUAAACUUGUUUAGUCUUAGCAC
# B9: MTRNR2L6 sense 75 nt (ssRNA)
# RNA: GUGCUAAGACUAAACAAGUUUAAGCGAAUUACUAUACAUAUAUUGACCCAAUAAUUUGAUCAACGGAACAAGUUA
# B10: MTRNR2L6 antisense 50 nt (ssRNA)
# RNA: GGGGUCAAUAUAUGUAUAGUAAUUCGCUUAAACUUGUUUAGUCUUAGCAC
# B11: MTRNR2L6 sense 200 nt (ssRNA)
# RNA: GUGCUAAGACUAAACAAGUUUAAGCGAAUUACUAUACAUAUAUUGACCCAAUAAUUUGAUCAACGGAACAAGUUACCCUAGGGAUAACAGCGCAAUCCUAUUCUAGAGUCCAUAUUGACAAUAGGGUUUACGACCUCGAUGUUGGAUCAGGACAUCCUAAUGGUGUAGCUGCUAUCAAGGGUUCAUUUGUUCAAUGAUUA
# B12: MTRNR2L6 sense 50 nt (ssRNA)
# RNA: GUGCUAAGACUAAACAAGUUUAAGCGAAUUACUAUACAUAUAUUGACCCA
# B13: MTRNR2L6 sense 150 nt (ssRNA)
# RNA: GUGCUAAGACUAAACAAGUUUAAGCGAAUUACUAUACAUAUAUUGACCCAAUAAUUUGAUCAACGGAACAAGUUACCCUAGGGAUAACAGCGCAAUCCUAUUCUAGAGUCCAUAUUGACAAUAGGGUUUACGACCUCGAUGUUGGAUCAG
# B14: MTRNR2L6 antisense 150 nt (ssRNA)
# RNA: GUGAUCCAACAUCGAGGUCGUAAACCCUAUUGUCAAUAUGGACUCUAGAAUAGGAUUGCGCUGUUAUCCCUAGGGUAACUUGUUCCGUUGAUCAAAUUAUUGGGUCAAUAUAUGUAUAGUAAUUCGCUUAAACUUGUUUAGUCUUAGCAC
# B15: MTRNR2L6 antisense 100 nt (ssRNA)
# RNA: GAGGAUUGCGCUGUUAUCCCUAGGGUAACUUGUUCCGUUGAUCAAAUUAUUGGGUCAAUAUAUGUAUAGUAAUUCGCUUAAACUUGUUUAGUCUUAGCAC
# B16: MTRNR2L6 antisense 25 nt (ssRNA)
# RNA: GCUUAAACUUGUUUAGUCUUAGCAC
# B17: MTRNR2L6 sense 250 nt (ssRNA)
# RNA: GUGCUAAGACUAAACAAGUUUAAGCGAAUUACUAUACAUAUAUUGACCCAAUAAUUUGAUCAACGGAACAAGUUACCCUAGGGAUAACAGCGCAAUCCUAUUCUAGAGUCCAUAUUGACAAUAGGGUUUACGACCUCGAUGUUGGAUCAGGACAUCCUAAUGGUGUAGCUGCUAUCAAGGGUUCAUUUGUUCAAUGAUUAAAGUCCUACGUGGUCUGAGUUCAGACCGGAGCAAGCCAGGUCUGGUACAU
# B18: MTRNR2L6 sense 25 nt (ssRNA)
# RNA: GUGCUAAGACUAAACAAGUUUAAGC
# B19: MTRNR2L6 antisense 250 nt (ssRNA)
# RNA: GUGUACCAGACCUGGCUUGCUCCGGUCUGAACUCAGACCACGUAGGACUUUAAUCAUUGAACAAAUGAACCCUUGAUAGCAGCUACACCAUUAGGAUGUCCUGAUCCAACAUCGAGGUCGUAAACCCUAUUGUCAAUAUGGACUCUAGAAUAGGAUUGCGCUGUUAUCCCUAGGGUAACUUGUUCCGUUGAUCAAAUUAUUGGGUCAAUAUAUGUAUAGUAAUUCGCUUAAACUUGUUUAGUCUUAGCAC
# B20: MTRNR2L6 sense 100 nt (ssRNA)
# RNA: GUGCUAAGACUAAACAAGUUUAAGCGAAUUACUAUACAUAUAUUGACCCAAUAAUUUGAUCAACGGAACAAGUUACCCUAGGGAUAACAGCGCAAUCCUA
# B21: MTRNR2L6 antisense 300 nt (ssRNA)
# RNA: GUUGUUUUAAAAAGACUUAUAGAUGGGAGGUGUGGAGGACUUAAAUACACAUGUACCAGACCUGGCUUGCUCCGGUCUGAACUCAGACCACGUAGGACUUUAAUCAUUGAACAAAUGAACCCUUGAUAGCAGCUACACCAUUAGGAUGUCCUGAUCCAACAUCGAGGUCGUAAACCCUAUUGUCAAUAUGGACUCUAGAAUAGGAUUGCGCUGUUAUCCCUAGGGUAACUUGUUCCGUUGAUCAAAUUAUUGGGUCAAUAUAUGUAUAGUAAUUCGCUUAAACUUGUUUAGUCUUAGCAC
# Target: U(702-825) (human, UniProt Q00839)
# Sequence (Q00839 702-825): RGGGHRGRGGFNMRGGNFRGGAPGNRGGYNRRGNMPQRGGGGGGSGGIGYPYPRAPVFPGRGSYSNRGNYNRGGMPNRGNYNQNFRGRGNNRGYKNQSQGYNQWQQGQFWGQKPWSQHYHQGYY
# Assay: fluorescence anisotropy
row,Binder,Kd [µM]
1,B1,0.22 ± 0.01
2,B2,0.07 ± 0.019
3,B3,0.57 ± 0.01
4,B4,0.45 ± 0.01

# Target: T1, U(702-745)
# Assay: fluorescence anisotropy
row,Binder,Kd [µM]
1,B2,0.91 ± 0.15

# Target: U(702-777) (human, UniProt Q00839 702-777)
# Sequence (Q00839 702-777): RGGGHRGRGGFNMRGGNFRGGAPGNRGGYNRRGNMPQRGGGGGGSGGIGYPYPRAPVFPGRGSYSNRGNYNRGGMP
# Assay: fluorescence anisotropy
row,Binder,Kd [µM]
1,B1,4.2 ± 0.5
2,B2,0.45 ± 0.16
3,B3,14 ± 2
4,B4,3.9 ± 0.9

# Target: U(702-793) (human, UniProt Q00839 702-793)
# Sequence (Q00839 702-793): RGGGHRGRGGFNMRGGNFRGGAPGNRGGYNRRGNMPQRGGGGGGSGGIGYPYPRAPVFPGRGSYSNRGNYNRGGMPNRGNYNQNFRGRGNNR
# Assay: fluorescence anisotropy
row,Binder,Kd [µM]
1,B1,1.1 ± 0.1
2,B2,0.18 ± 0.05
3,B3,3 ± 0.2
4,B4,1.2 ± 0.1

# Target: U(702-761) (human, UniProt Q00839 702-761)
# Assay: fluorescence anisotropy
row,Binder,Kd [µM]
1,B2,1.1 ± 0.4

# Target: T2, RGG1 (minimal first RGG/RG motif)
# Assay: fluorescence anisotropy
row,Binder,Kd [µM]
1,B2,~1
2,B5,~1

# Target: U(702-809) (human, UniProt Q00839 702-809)
# Sequence (Q00839 702-809): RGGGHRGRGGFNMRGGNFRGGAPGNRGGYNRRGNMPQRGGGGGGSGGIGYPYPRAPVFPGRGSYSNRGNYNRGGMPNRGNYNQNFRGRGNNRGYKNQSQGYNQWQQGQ
# Assay: fluorescence anisotropy
row,Binder,Kd [µM]
1,B1,0.71 ± 0.01
2,B2,0.14 ± 0.05
3,B3,1.6 ± 0.1
4,B4,0.81 ± 0.06

# Target: U-CTD (hnRNP U RBD) (human, UniProt Q00839 673-825)
# Sequence (Q00839 673-825): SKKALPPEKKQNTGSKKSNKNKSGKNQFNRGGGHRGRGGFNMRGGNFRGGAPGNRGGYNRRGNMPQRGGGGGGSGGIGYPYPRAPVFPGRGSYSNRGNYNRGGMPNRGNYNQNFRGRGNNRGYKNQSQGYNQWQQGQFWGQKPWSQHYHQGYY
# Assay: fluorescence anisotropy
row,Binder,apparent K (half saturation) [nM]
1,B6,230 ± 10
2,B7,110 ± 10
3,B8,410 ± 30
4,B9,320 ± 30
5,B10,480 ± 40
6,B11,210 ± 20
7,B12,1000 ± 100
8,B13,130 ± 10
9,B14,190 ± 10
10,B15,280 ± 20
11,B16,6000 ± 300
12,B17,100 ± 10
13,B18,4900 ± 700
14,B19,110 ± 10
15,B20,150 ± 20
16,B21,110 ± 10
